According to patent US8980614B2, “Staphylococcus haemolyticus prophage φSH2 endolysin is lytic for Staphylococcus aureus” (The United States of America, as represented by The …, priority 2012, dated 2015):

Experiments:
[1] = tested on: S. aureus Newman cells; assay: Zymogram with S. aureus Newman cells embedded in the gel; type: cell-based; settings: 5 μg protein
Method: All purified proteins were analyzed with 15% SDS-PAGE, using a Kaleidoscope Precision Plus Protein Standard (BioRad, Hercules, Calif.). For zymograms, a 300 mL culture volume equivalent of live mid-log phase (OD600nm=0.4-0.6) cells of S. aureus strain Newman was embedded in the gel during polymerization. The protein samples were boiled in Laemmli sample buffer (BioRad) with β-mercaptoethanol, and electrophoresed with identical buffers and voltage for one hour in both the SDS-PAGE and the zymogram using a Mini-Protean TETRA gel system (BioRad). SDS gels were Coomassie stained and zymograms were washed in excess water and further incubated in deionized water for 60 min, followed by incubation in 10 mM Tris, pH 8.0 with 150 mM or 300 mM NaCl for 80 min. Areas of clearing in the turbid zymogram gel indicate a lytic protein in the gel.

[2] = tested on: staphylococcal strains (MRSA strains, mastitis isolates, coagulase negative staphylococci); assay: Plate lysis assay, whole set of strains; type: cell-based, Staphylococcus; settings: 100 to 3.125 pmoles spotted
Method: (§1) Purified proteins (100 pmoles in a 10 μl volume and five two-fold serial dilutions thereof) were spotted onto a freshly spread lawn of log phase staphylococcal cells (OD600 nm of 0.4-0.6, diluted ¼ before plating) that had air dried for 15 min on gridded TSA (tryptic soy agar) plates. The spotted plates were air dried for 10 min in a laminar flow hood and incubated overnight at 37° C. Cleared spots indicating cell lysis were scored within 24 hours of plating the cells.
(§2) The φSH2 full length enzyme and the A1 construct were further tested in plate lysis assays against a set of different staphylococcal strains, including MRSA strains (NRS 382-385), mastitis isolates (305, Tanji 1-26), and coagulase negative staphylococci (non S. aureus) (Table 2). The same molar amounts of both proteins (ranging from 100 pmoles to 3.125 pmoles, in a volume of 10 ul) were spotted onto lawns of mid log phase cells of the respective strains, and the plates were analyzed for lysis zones the next day.

[3] = tested on: S. aureus Newman cells; assay: Turbidity reduction assay; type: cell-based, Staphylococcus aureus
Method: The turbidity reduction assay measures a decrease in optical density of a bacterial suspension due to lysis of the target bacteria by a lytic protein. The assays were performed in a 96-well dish format essentially as described previously (Donovan et al. 2006, supra). In order to reduce the variability of the assay, frozen stocks of S. aureus Newman substrate cells were prepared in a large batch as described by Becker et al. (2009b, supra). Immediately prior to the assay, the frozen cells were thawed, washed, and resuspended in the desired assay buffer such that when 100 μl of cell suspension were added to 100 μl of lysis buffer+/−protein, the final suspension has an OD600nm of ˜1.0.
Protein constructs were assayed at a concentration of 1 μM, and the assay was performed at room temperature, measuring the OD600nm at 1 min intervals for 45 min. Buffer without enzyme served as the control. The steepest slopes of the resulting lysis curves, which correspond to the lytic activities of the proteins, were determined by a sliding window over each group of three consecutive time points for the entire 45 min period. Specific activities were expressed as ΔOD600nm/min/μM, and the “no enzyme” control value was subtracted from each experimental value.
In order to determine the effect of salt concentration on lytic activity, turbidity reduction assays were performed in 10 mM Tris buffers at pH 7.5 with varying NaCl concentrations between 0 mM and 600 mM. Accordingly, the influence of pH was determined by using a series of different buffers with pH values ranging from 3.5 to 10.0. Citrate buffers were used for pH 3.5, 4.5, 5.5, and 6.0, MOPS buffers for pH 6.5, 7.0, and 7.5, Tris buffers for pH 8.0 and 9.0, and Carbonate/bicarbonate buffer for pH 10.0. The concentration of the buffer substance in all buffers used was 20 mM, and the NaCl concentration was 200 mM. To test the effect of bivalent metal ions, assays were performed in 10 mM Tris, 200 mM NaCl, pH 7.5 supplemented with MgCl2, MnCl2, or CaCl2 at different concentrations (0.1 mM, 1 mM, 10 mM), buffer without metal ions serving as control.

[4] = tested on: S. chromogenes; assay: Plate lysis assay; type: cell-based; settings: 100 pmoles and 2-fold serial dilutions spotted on bacterial lawns
Method: as §1, §2

[5] = tested on: S. aureus NRS 385; assay: Plate lysis assay; type: cell-based; settings: S. aureus NRS 385 (MRSA); 100 pmoles and 2-fold serial dilutions spotted on bacterial lawns
Method: as §1, §2

[6] = tested on: S. simulans; assay: Plate lysis assay; type: cell-based
Method: as §1, §2

[7] = tested on: S. aureus Tanji 20; assay: Plate lysis assay; type: cell-based; settings: 100 pmoles and 2-fold serial dilutions spotted on bacterial lawns
Method: as §1, §2

[8] = tested on: S. xylocus; assay: Plate lysis assay; type: cell-based; settings: 100 pmoles and 2-fold serial dilutions spotted on bacterial lawns
Method: as §1, §2

[9] = tested on: S. hyicus; assay: Plate lysis assay; type: cell-based
Method: as §1, §2

[10] = tested on: S. aureus NRS 383; assay: Plate lysis assay; type: cell-based; settings: S. aureus NRS 383 (MRSA); 100 pmoles and 2-fold serial dilutions spotted on bacterial lawns
Method: as §1, §2

[11] = tested on: S. aureus 305; assay: Plate lysis assay; type: cell-based; settings: 100 pmoles and 2-fold serial dilutions spotted on bacterial lawns
Method: as §1, §2

[12] = tested on: S. aureus NRS 382; assay: Plate lysis assay; type: cell-based; settings: S. aureus NRS 382 (MRSA); 100 pmoles and 2-fold serial dilutions spotted on bacterial lawns
Method: as §1, §2

[13] = tested on: S. warneri; assay: Plate lysis assay; type: cell-based; settings: 100 pmoles and 2-fold serial dilutions spotted on bacterial lawns
Method: as §1, §2

[14] = tested on: S. aureus Tanji 19; assay: Plate lysis assay; type: cell-based; settings: 100 pmoles and 2-fold serial dilutions spotted on bacterial lawns
Method: as §1, §2

[15] = tested on: S. aureus NRS 384; assay: Plate lysis assay; type: cell-based; settings: S. aureus NRS 384 (MRSA); 100 pmoles and 2-fold serial dilutions spotted on bacterial lawns
Method: as §1, §2

[16] = tested on: S. epidermidis; assay: Plate lysis assay; type: cell-based; settings: 100 pmoles and 2-fold serial dilutions spotted on bacterial lawns
Method: as §1, §2

[17] = tested on: S. aureus Newman; assay: Plate lysis assay; type: cell-based
Method: as §1, §2

[18] = tested on: S. aureus Tanji 26; assay: Plate lysis assay; type: cell-based; settings: 100 pmoles and 2-fold serial dilutions spotted on bacterial lawns
Method: as §1, §2

[19] = tested on: S. aureus Tanji 1; assay: Plate lysis assay; type: cell-based; settings: 100 pmoles and 2-fold serial dilutions spotted on bacterial lawns
Method: as §1, §2

[20] = 100 pmoles and 2-fold serial dilutions spotted on bacterial lawns

B1: ΦSH2 A1: Truncation of φSH2 lysin (1-166), isolated CHAP domain, 6×His-tagged, from pφSH2_A1, SEQ ID NO:4 (protein)
chain: MKTQAEINKRLDAYRKGTVDSPYRVKVWTSYDNRFYPMEPGCIDVDKSFHAQCADLTIDYILWLTDNEFRIRGNAKDAINPKKNKLPEGWKIVLNRPSTVPRKGWIAVFTDGTYWEYGHIGMVYDGGNTSRFQILEQNWNGWANKKPSLRWDNYYGLTHFIVPPVALEHHHHHH
modifications: 6xHis tag; Bacteriophage Phi SH2
lysis in zymogram ([1]; after incubation in deionized water for 60 min): did not cause a lytic band | lysis in zymogram ([1]; water 60 min, then 10 mM Tris, 150 mM NaCl, pH 8.0 up to 80 min): intense lytic band | strains against which lytic activity was displayed ([2]; 16 strains tested): 13 out of 16 | MRSA strains lysed ([2]; four MRSA strains (NRS 382-385)): two MRSA strains | lytic (specific) activity compared with the full length φSH2 lysin ([3]; 1 μM protein, at optimum salt concentration): approximately three-fold higher | increase of lytic activity by Ca2+ ([3]; 1 mM CaCl2, relative to 0 mM, 10 mM Tris, 200 mM NaCl, pH 7.5): more than 6 fold | effect of Mg2+ on lytic activity ([3]; 0.1-10 mM MgCl2, 10 mM Tris, 200 mM NaCl, pH 7.5): not significantly alter | effect of Mn2+ on lytic activity ([3]; 0.1-10 mM MnCl2, 10 mM Tris, 200 mM NaCl, pH 7.5): slightly inhibitory effect | Lytic activity (lowest amount of protein producing a lysis zone) [4]: ++ (++: 50 pmoles) | Lytic activity (lowest amount of protein producing a lysis zone) [5]: − (‘−’ means that no lysis was observed at the highest amount tested (100 pmoles)) | Lytic activity (lowest amount of protein producing a lysis zone) [6, 20]: +++ (+++: 25 pmoles) | amount of protein causing a lysis zone ([6]; 100 to 3.125 pmoles spotted): 25 pmol | Lytic activity (lowest amount of protein producing a lysis zone) [7]: +++ (+++: 25 pmoles) | Lytic activity (lowest amount of protein producing a lysis zone) [8]: ++ (++: 50 pmoles) | Lytic activity (lowest amount of protein producing a lysis zone) [9, 20]: ++++ (++++: 12.5 pmoles) | amount of protein causing a lysis zone ([9]; 100 to 3.125 pmoles spotted): 12.5 pmol | Lytic activity (lowest amount of protein producing a lysis zone) [10]: − (‘−’ means that no lysis was observed at the highest amount tested (100 pmoles)) | Lytic activity (lowest amount of protein producing a lysis zone) [11]: ++++ (++++: 12.5 pmoles) | Lytic activity (lowest amount of protein producing a lysis zone) [12]: ++ (++: 50 pmoles) | Lytic activity (lowest amount of protein producing a lysis zone) [13]: ++ (++: 50 pmoles) | Lytic activity (lowest amount of protein producing a lysis zone) [14]: +++ (+++: 25 pmoles) | Lytic activity (lowest amount of protein producing a lysis zone) [15]: ++ (++: 50 pmoles) | Lytic activity (lowest amount of protein producing a lysis zone) [16]: − (‘−’ means that no lysis was observed at the highest amount tested (100 pmoles)) | Lytic activity (lowest amount of protein producing a lysis zone) [17, 20]: + (+: 100 pmoles) | amount of protein causing a lysis zone ([17]; 100 to 3.125 pmoles spotted): 100 pmol | Lytic activity (lowest amount of protein producing a lysis zone) [18]: + (+: 100 pmoles) | Lytic activity (lowest amount of protein producing a lysis zone) [19]: +++ (+++: 25 pmoles)
